Test results reported in publication PMC4460818.

Biological target: His-NDR1^3E (human) (UniProt Q15208)
Sequence (Q15208 other isoform, or with tags, fused parts or gaps): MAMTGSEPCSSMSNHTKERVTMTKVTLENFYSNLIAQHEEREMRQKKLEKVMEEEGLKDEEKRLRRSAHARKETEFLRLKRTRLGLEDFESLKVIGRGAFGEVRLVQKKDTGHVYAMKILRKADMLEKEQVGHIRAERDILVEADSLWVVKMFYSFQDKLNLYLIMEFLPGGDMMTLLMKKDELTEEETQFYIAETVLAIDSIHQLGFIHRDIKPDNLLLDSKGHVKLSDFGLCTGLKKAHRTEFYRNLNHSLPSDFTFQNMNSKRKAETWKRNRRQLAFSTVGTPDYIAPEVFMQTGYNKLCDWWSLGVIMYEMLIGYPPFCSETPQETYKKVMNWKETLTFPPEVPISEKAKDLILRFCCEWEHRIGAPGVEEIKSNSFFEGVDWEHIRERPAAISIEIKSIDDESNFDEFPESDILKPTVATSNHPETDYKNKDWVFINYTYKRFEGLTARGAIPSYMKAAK

- Km toward the 10-mer substrate peptide SP in a fluorimetric kinase assay, relative to wild type NDR1: 1.7 fold
Binder: KKRNRRLSVA [10-mer NDR1 substrate peptide]
